Data taken from US10513547B2, “Peptides and combination of peptides and scaffolds thereof for use in immunotherapy against colorectal carcinoma (CRC) and other cancers” (Immatics Biotechnologies GmbH, priority 2015, dated 2019).

What follows are substances tested against HLA-A*02:01 (Homo sapiens, UniProt P04439, D140Y/D185E/D98H/E176V/E277Q/G131W/G231S/I119V/I121R/I166T/I218V/L300P/L318F/N151K/N90K/P208A/P217A/Q86G/Q94H/R138H/R169H/T345S) (assay: MHC binding assay (UV-ligand exchange, beta2m ELISA, peptide exchange yield)). Conditions: binding to HLA-A*02:01.
Source text: Candidate peptides for T cell based therapies according to the present invention were further tested for their MHC binding capacity (affinity). The individual peptide-MHC complexes were produced by UV-ligand exchange, where a UV-sensitive peptide is cleaved upon UV-irradiation, and exchanged with the peptide of interest as analyzed. Only peptide candidates that can effectively bind and stabilize the peptide-receptive MHC molecules prevent dissociation of the MHC complexes. To determine the yield of the exchange reaction, an ELISA was performed based on the detection of the light chain ([…]) of stabilized MHC complexes. The assay was performed as generally described in Rodenko et al. (Rodenko et al., 2006).
96 well MAXISorp plates (NUNC) were coated over night with 2 ug/ml streptavidin in PBS at room temperature, washed 4× and blocked for 1 h at 37° C. in 2% BSA containing blocking buffer. Refolded HLA-A*02:01/MLA-001 monomers served as standards, covering the range of 15-500 ng/ml. Peptide-MHC monomers of the UV-exchange reaction were diluted 100 fold in blocking buffer. Samples were incubated for 1 h at 37° C., washed four times, incubated with 2 ug/ml HRP conjugated anti-β2m for 1 h at 37° C., washed again and detected with TMB solution that is stopped with […]. Absorption was measured at 450 nm. Candidate peptides that show a high exchange yield (preferably higher than 50%, most preferred higher than 75%) are generally preferred for a generation and production of antibodies or fragments thereof, and/or T cell receptors or fragments thereof, as they show sufficient avidity to the MHC molecules and prevent dissociation of the MHC complexes.
With “4 (RLAELTVDEFL; listed as Homo sapiens) [compound 4]” the “Peptide exchange (MHC class I binding score, peptide exchange yield)” value (“Peptide exchange” for short) was ““+++” (≥50 = +++)”.
With “6 (FLAELPGSLSL; listed as Homo sapiens) [compound 6]” the “Peptide exchange” value was ““+++” (≥50 = +++)”.
“8 (ALMLQGVDLL; listed as Homo sapiens) [compound 8]” was tested, and the “Peptide exchange” value was ““+++” (≥50 = +++)”.
In the case of “14 (FLDKPEDVLL; listed as Homo sapiens) [compound 14]”, the “Peptide exchange” value is reported as ““++” (≥20% = ++)”.
With “15 (LQLDKEFQL; listed as Homo sapiens) [compound 15]” the “Peptide exchange” value was ““+++” (≥50 = +++)”.
In the case of “16 (VLVDQSWVL; listed as Homo sapiens) [compound 16]”, the “Peptide exchange” value is reported as ““+++” (≥50 = +++)”.
“20 (YLKDGDVML; listed as Homo sapiens) [compound 20]” was tested, and the “Peptide exchange” value was ““+++” (≥50 = +++)”.
“23 (FLDANGHFV; listed as Homo sapiens) [compound 23]” was tested, and the “Peptide exchange” value was ““+++” (≥50 = +++)”.
In the case of “24 (VLDGVLMEL; listed as Homo sapiens) [compound 24]”, the “Peptide exchange” value is reported as ““+++” (≥50 = +++)”.
“25 (SLADRLIGV; listed as Homo sapiens) [compound 25]” was tested, and the “Peptide exchange” value was ““++++” (≥75% = ++++)”.
“26 (GLASKENFSNVSL; listed as Homo sapiens) [compound 26]” was tested, and the “Peptide exchange” value was ““++” (≥20% = ++)”.
In the case of “27 (LLADEDSSYL; listed as Homo sapiens) [compound 27]”, the “Peptide exchange” value is reported as ““++” (≥20% = ++)”.
With “28 (ALTEIQEFI; listed as Homo sapiens) [compound 28]” the “Peptide exchange” value was ““++++” (≥75% = ++++)”.
For “29 (QMLDVAIRV; listed as Homo sapiens) [compound 29]”, the “Peptide exchange” value was ““+++” (≥50 = +++)”.
“30 (GLSSAYGGL; listed as Homo sapiens) [compound 30]” was tested, and the “Peptide exchange” value was ““+” (≥10% = +)”.
For “33 (ALWEKNTHL; listed as Homo sapiens) [compound 33]”, the “Peptide exchange” value was ““+++” (≥50 = +++)”.
“34 (ILLEKSVSV; listed as Homo sapiens) [compound 34]” was tested, and the “Peptide exchange” value was ““+++” (≥50 = +++)”.
“35 (KLLDLTVRI; listed as Homo sapiens) [compound 35]” was tested, and the “Peptide exchange” value was ““+++” (≥50 = +++)”.
For “36 (GLLESPSIFNFTA; listed as Homo sapiens) [compound 36]”, the “Peptide exchange” value was ““+++” (≥50 = +++)”.
For “40 (ALSNVIHKV; listed as Homo sapiens) [compound 40]”, the “Peptide exchange” value was ““++” (≥20% = ++)”.
With “41 (ILDDSFKLL; listed as Homo sapiens) [compound 41]” the “Peptide exchange” value was ““++” (≥20% = ++)”.
For “43 (TLDAAQPRV; listed as Homo sapiens) [compound 43]”, the “Peptide exchange” value was ““++” (≥20% = ++)”.
With “44 (SLESKLTSV; listed as Homo sapiens) [compound 44]” the “Peptide exchange” value was ““+++” (≥50 = +++)”.
For “45 (ALAELLHGA; listed as Homo sapiens) [compound 45]”, the “Peptide exchange” value was ““+++” (≥50 = +++)”.
With “46 (GLDDRYSLV; listed as Homo sapiens) [compound 46]” the “Peptide exchange” value was ““+++” (≥50 = +++)”.
For “48 (FLDASDPAL; listed as Homo sapiens) [compound 48]”, the “Peptide exchange” value was ““++” (≥20% = ++)”.
In the case of “50 (TLMAEMHVV; listed as Homo sapiens) [compound 50]”, the “Peptide exchange” value is reported as ““+++” (≥50 = +++)”.
With “51 (QVWEIQHTV; listed as Homo sapiens) [compound 51]” the “Peptide exchange” value was ““++” (≥20% = ++)”.
“52 (ALDSSNSMQTI; listed as Homo sapiens) [compound 52]” was tested, and the “Peptide exchange” value was ““++” (≥20% = ++)”.
With “53 (FLLGSEIKL; listed as Homo sapiens) [compound 53]” the “Peptide exchange” value was ““+++” (≥50 = +++)”.
In the case of “54 (ALLNGEYLLAA; listed as Homo sapiens) [compound 54]”, the “Peptide exchange” value is reported as ““+++” (≥50 = +++)”.
“56 (VLFTDEGVPKFL; listed as Homo sapiens) [compound 56]” was tested, and the “Peptide exchange” value was ““++” (≥20% = ++)”.
In the case of “57 (NLLEKENYL; listed as Homo sapiens) [compound 57]”, the “Peptide exchange” value is reported as ““+++” (≥50 = +++)”.
In the case of “58 (AMADKMDMSL; listed as Homo sapiens) [compound 58]”, the “Peptide exchange” value is reported as ““++” (≥20% = ++)”.
In the case of “60 (VLDEDEPRFL; listed as Homo sapiens) [compound 60]”, the “Peptide exchange” value is reported as ““++” (≥20% = ++)”.
“61 (KLLKLFQGV; listed as Homo sapiens) [compound 61]” was tested, and the “Peptide exchange” value was ““+++” (≥50 = +++)”.
“62 (YLAPENGYL; listed as Homo sapiens) [compound 62]” was tested, and the “Peptide exchange” value was ““++” (≥20% = ++)”.
In the case of “63 (KLFSILSTV; listed as Homo sapiens) [compound 63]”, the “Peptide exchange” value is reported as ““++” (≥20% = ++)”.
“66 (GLDDGPDFL; listed as Homo sapiens) [compound 66]” was tested, and the “Peptide exchange” value was ““++” (≥20% = ++)”.
For “67 (SLNDLEKDVMLL; listed as Homo sapiens) [compound 67]”, the “Peptide exchange” value was ““+++” (≥50 = +++)”.
With “68 (SILQFVHMV; listed as Homo sapiens) [compound 68]” the “Peptide exchange” value was ““+++” (≥50 = +++)”.
In the case of “69 (GMLNEAEGKAIKL; listed as Homo sapiens) [compound 69]”, the “Peptide exchange” value is reported as ““++” (≥20% = ++)”.
For “70 (MISELEVRL; listed as Homo sapiens) [compound 70]”, the “Peptide exchange” value was ““+++” (≥50 = +++)”.
With “71 (RLWTEIPTAI; listed as Homo sapiens) [compound 71]” the “Peptide exchange” value was ““+++” (≥50 = +++)”.
In the case of “72 (YLLDYPNNLL; listed as Homo sapiens) [compound 72]”, the “Peptide exchange” value is reported as ““+++” (≥50 = +++)”.
With “73 (YLFDIAVSM; listed as Homo sapiens) [compound 73]” the “Peptide exchange” value was ““+++” (≥50 = +++)”.
For “74 (YLMGFLHAV; listed as Homo sapiens) [compound 74]”, the “Peptide exchange” value was ““+++” (≥50 = +++)”.
For “75 (EMIENIQSV; listed as Homo sapiens) [compound 75]”, the “Peptide exchange” value was ““++” (≥20% = ++)”.
In the case of “76 (YLIGEKQHYL; listed as Homo sapiens) [compound 76]”, the “Peptide exchange” value is reported as ““+++” (≥50 = +++)”.
“77 (SLLKRDFGA; listed as Homo sapiens) [compound 77]” was tested, and the “Peptide exchange” value was ““++” (≥20% = ++)”.
With “78 (ALDPELLLL; listed as Homo sapiens) [compound 78]” the “Peptide exchange” value was ““++” (≥20% = ++)”.
With “79 (SLAADQLLKL; listed as Homo sapiens) [compound 79]” the “Peptide exchange” value was ““++” (≥20% = ++)”.
With “80 (QVDEVVDIMRV; listed as Homo sapiens) [compound 80]” the “Peptide exchange” value was ““++” (≥20% = ++)”.
For “81 (ALLSQQTHL; listed as Homo sapiens) [compound 81]”, the “Peptide exchange” value was ““+++” (≥50 = +++)”.
“82 (QLYEEPDTKL; listed as Homo sapiens) [compound 82]” was tested, and the “Peptide exchange” value was ““++” (≥20% = ++)”.
“83 (LTIEDGIFEV; listed as Homo sapiens) [compound 83]” was tested, and the “Peptide exchange” value was ““+++” (≥50 = +++)”.
In the case of “84 (SMVEDITGLRL; listed as Homo sapiens) [compound 84]”, the “Peptide exchange” value is reported as ““+++” (≥50 = +++)”.
With “85 (ILHDINSDGVL; listed as Homo sapiens) [compound 85]” the “Peptide exchange” value was ““++” (≥20% = ++)”.
With “86 (KVFPGKISV; listed as Homo sapiens) [compound 86]” the “Peptide exchange” value was ““++” (≥20% = ++)”.
“87 (LLFDAPDLRL; listed as Homo sapiens) [compound 87]” was tested, and the “Peptide exchange” value was ““+++” (≥50 = +++)”.
For “88 (KLDIKVETV; listed as Homo sapiens) [compound 88]”, the “Peptide exchange” value was ““++++” (≥75% = ++++)”.
With “89 (SLIEYEFRV; listed as Homo sapiens) [compound 89]” the “Peptide exchange” value was ““+++” (≥50 = +++)”.
